{"source": "patent EP0480381A1", "key": {"[1]": {"target": "rat endothelin receptor (rat)", "experiment": "cell-based or functional assay"}, "[2]": {"target": "rat endothelin receptor (rat)", "experiment": "displacement of [125I-Tyr13]endothelin-1 by unlabelled peptide on COS-7 cells transfected with prETR-7"}}}
{"substance": "endothelin-2 (from UniProt P20800 49-69) (peptide)", "values": [{"measurement": "increase of calcium concentration in cytoplasm (fura-2), EC50", "setting": "[1]", "value": 20, "unit": "pM"}, {"measurement": "binding affinity", "setting": "[2]", "value": 2, "unit": "nM"}]}
